{
  "source": "patent US20210317227A1",
  "assay_in_all_cases": "cell-based or functional assay",
  "key": {"[1]": {"biological_target": "FcγRIIa on M2c macrophages (secondary ADCP assay) (UniProt P12318)"}, "[2]": {"biological_target": "FcγRIIIa on NK cells (secondary ADCC assays) (UniProt P08637)"}, "[3]": {"biological_target": "FcγRIIIa on Jurkat effector cells (UniProt P08637)"}, "[4]": {"biological_target": "human FcγRIIa-H variant on Jurkat effector cells (human) (UniProt P12318)"}},
  "data": [
    {"substance": "afucosylated anti-CD20 IgG1 monoclonal antibody (obinutuzumab)", "values": [
      {"measurement": "EC50 (nM) Mean", "setting": "[1]", "value": 0.37, "unit": "nM"}
    ]},
    {"substance": "afucosylated anti-PD-L1 IgG1 monoclonal antibody (avelumab)", "values": [
      {"measurement": "EC50 (nM) Mean", "setting": "[2]", "value": 0.0054, "unit": "nM"}
    ]},
    {"substance": "fucosylated anti-CD20 IgG1 monoclonal antibody (obinutuzumab)", "values": [
      {"measurement": "EC50 (nM) Mean", "setting": "[2]", "value": 0.033, "unit": "nM"},
      {"measurement": "EC50 (nM) Mean", "setting": "[1]", "value": 0.82, "unit": "nM"},
      {"measurement": "EC50 (nM) Mean", "setting": "[3]", "value": 7.1, "unit": "nM"},
      {"measurement": "EC50 (nM) Mean", "setting": "[4]", "value": 7.1, "unit": "nM"}
    ]},
    {"substance": "fucosylated anti-PD-L1 IgG1 monoclonal antibody (avelumab)", "values": [
      {"measurement": "EC50 (nM) Mean", "setting": "[3]", "value": 0.049, "unit": "nM"}
    ]}
  ]
}
